# In PMC9474506:
# Legend:
# [1] = molecular target: Flag-tagged PU.1 F203Y (human) (UniProt P17947)
# [2] = molecular target: Flag-tagged PU.1 Y252N (human) (UniProt P17947)
# [3] = molecular target: Flag-tagged PU.1 Q202L (human) (UniProt P17947)
# [4] = molecular target: Flag-tagged PU.1 wild-type (human) (UniProt P17947)
substance,measurement,setting,value
myc-tagged c-Jun (from UniProt P05412 1-331) (natural protein),"luciferase activity of the human M-CSFR promoter reporter, F9 cells, PU.1 mutant co-transfected with c-Jun, fold activation",[1],5 fold
same,"luciferase activity of the human M-CSFR promoter reporter, F9 cells, PU.1 mutant co-transfected with c-Jun, fold activation",[2],3.5 fold
same,"luciferase activity of the human M-CSFR promoter reporter, F9 cells, PU.1 mutant co-transfected with c-Jun, fold activation",[3],5 fold
same,"luciferase activity of the human M-CSFR promoter reporter, F9 cells (no endogenous c-Jun), PU.1 co-transfected with c-Jun, fold activation",[4],25 fold
